According to paper PMC10540216, “Activity Guided Azide-methyllysine Photo-trapping for Substrate Profiling of Lysine Demethylases” (Journal of the American Chemical Society, 2023):

B1: SYCM_HUMAN (protein, UniProt Q6PI48 48-645, looked up)
Aspartate--tRNA ligase, …: VVRTNTCGELRSSHLGQEVTLCGWIQYRRQNTFLVLRDFDGLVQVIIPQDESAASVKKILCEAPVESVVQVSGTVISRPAGQENPKMPTGEIEIKVKTAELLNACKKLPFEIKNFVKKTEALRLQYRYLDLRSFQMQYNLRLRSQMVMKMREYLCNLHGFVDIETPTLFKRTPGGAKEFLVPSREPGKFYSLPQSPQQFKQLLMVGGLDRYFQVARCYRDEGSRPDRQPEFTQIDIEMSFVDQTGIQSLIEGLLQYSWPNDKDPVVVPFPTMTFAEVLATYGTDKPDTRFGMKIIDISDVFRNTEIGFLQDALSKPHGTVKAICIPEGAKYLKRKDIESIRNFAADHFNQEILPVFLNANRNWNSPVANFIMESQRLELIRLMETQEEDVVLLTAGEHNKACSLLGKLRLECADLLETRGVVLRDPTLFSFLWVVDFPLFLPKEENPRELESAHHPFTAPHPSDIHLLYTEPKKARSQHYDLVLNGNEIGGGSIRIHNAELQRYILATLLKEDVKMLSHLLQALDYGAPPHGGIALGLDRLICLVTGSPSIRDVIAFPKSFRGHDLMSNTPDSVPPEELKPYHIRVSKPTDSKAERAH
B2: SF3B4_HUMAN (protein, UniProt Q15427 2-424, looked up)
Splicing factor 3B subunit 4: AAGPISERNQDATVYVGGLDEKVSEPLLWELFLQAGPVVNTHMPKDRVTGQHQGYGFVEFLSEEDADYAIKIMNMIKLYGKPIRVNKASAHNKNLDVGANIFIGNLDPEIDEKLLYDTFSAFGVILQTPKIMRDPDTGNSKGYAFINFASFDASDAAIEAMNGQYLCNRPITVSYAFKKDSKGERHGSAAERLLAAQNPLSQADRPHQLFADAPPPPSAPNPVVSSLGSGLPPPGMPPPGSFPPPVPPPGALPPGIPPAMPPPPMPPGAAGHGPPSAGTPGAGHPGHGHSHPHPFPPGGMPHPGMSQMQLAHHGPHGLGHPHAGPPGSGGQPPPRPPPGMPHPGPPPMGMPPRGPPFGSPMGHPGPMPPHGMRGPPPLMPPHGYTGPPRPPPYGYQRGPLPPPRPTPRPPVPPRGPLRGPLPQ
B3: SYFA_HUMAN (protein, UniProt Q9Y285 2-508, looked up)
Phenylalanine--tRNA ligase …: ADGQVAELLLRRLEASDGGLDSAELAAELGMEHQAVVGAVKSLQALGEVIEAELRSTKHWELTAEGEEIAREGSHEARVFRSIPPEGLAQSELMRLPSGKVGFSKAMSNKWIRVDKSAADGPRVFRVVDSMEDEVQRRLQLVRGGQAEKLGEKERSELRKRKLLAEVTLKTYWVSKGSAFSTSISKQETELSPEMISSGSWRDRPFKPYNFLAHGVLPDSGHLHPLLKVRSQFRQIFLEMGFTEMPTDNFIESSFWNFDALFQPQQHPARDQHDTFFLRDPAEALQLPMDYVQRVKRTHSQGGYGSQGYKYNWKLDEARKNLLRTHTTSASARALYRLAQKKPFTPVKYFSIDRVFRNETLDATHLAEFHQIEGVVADHGLTLGHLMGVLREFFTKLGITQLRFKPAYNPYTEPSMEVFSYHQGLKKWVEVGNSGVFRPEMLLPMGLPENVSVIAWGLSLERPTMIKYGINNIRELVGHKVNLQMVYDSPLCRLDAEPRPPPTQEAA
B4: SF3A3_HUMAN (protein, UniProt Q12874 1-501, looked up)
Splicing factor 3A subunit 3: METILEQQRRYHEEKERLMDVMAKEMLTKKSTLRDQINSDHRTRAMQDRYMEVSGNLRDLYDDKDGLRKEELNAISGPNEFAEFYNRLKQIKEFHRKHPNEICVPMSVEFEELLKARENPSEEAQNLVEFTDEEGYGRYLDLHDCYLKYINLKASEKLDYITYLSIFDQLFDIPKERKNAEYKRYLEMLLEYLQDYTDRVKPLQDQNELFGKIQAEFEKKWENGTFPGWPKETSSALTHAGAHLDLSAFSSWEELASLGLDRLKSALLALGLKCGGTLEERAQRLFSTKGKSLESLDTSLFAKNPKSKGTKRDTERNKDIAFLEAQIYEYVEILGEQRHLTHENVQRKQARTGEEREEEEEEQISESESEDEENEIIYNPKNLPLGWDGKPIPYWLYKLHGLNINYNCEICGNYTYRGPKAFQRHFAEWRHAHGMRCLGIPNTAHFANVTQIEDAVSLWAKLKLQKASERWQPDTEEEYEDSSGNVVNKKTYEDLKRQGLL
B5: TCPB_HUMAN (protein, UniProt P78371 2-535, looked up)
T-complex protein 1 subunit …: ASLSLAPVNIFKAGADEERAETARLTSFIGAIAIGDLVKSTLGPKGMDKILLSSGRDASLMVTNDGATILKNIGVDNPAAKVLVDMSRVQDDEVGDGTTSVTVLAAELLREAESLIAKKIHPQTIIAGWREATKAAREALLSSAVDHGSDEVKFRQDLMNIAGTTLSSKLLTHHKDHFTKLAVEAVLRLKGSGNLEAIHIIKKLGGSLADSYLDEGFLLDKKIGVNQPKRIENAKILIANTGMDTDKIKIFGSRVRVDSTAKVAEIEHAEKEKMKEKVERILKHGINCFINRQLIYNYPEQLFGAAGVMAIEHADFAGVERLALVTGGEIASTFDHPELVKLGSCKLIEEVMIGEDKLIHFSGVALGEACTIVLRGATQQILDEAERSLHDALCVLAQTVKDSRTVYGGGCSEMLMAHAVTQLANRTPGKEAVAMESYAKALRMLPTIIADNAGYDSADLVAQLRAAHSEGNTTAGLDMREGTIGDMAILGITESFQVKRQVLLSAAEAAEVILRVDNIIKAAPRKRVPDHHPC
B6: HNRPR_HUMAN (protein, UniProt O43390 2-633, looked up)
Heterogeneous nuclear …: ANQVNGNAVQLKEEEEPMDTSSVTHTEHYKTLIEAGLPQKVAERLDEIFQTGLVAYVDLDERAIDALREFNEEGALSVLQQFKESDLSHVQNKSAFLCGVMKTYRQREKQGSKVQESTKGPDEAKIKALLERTGYTLDVTTGQRKYGGPPPDSVYSGVQPGIGTEVFVGKIPRDLYEDELVPLFEKAGPIWDLRLMMDPLSGQNRGYAFITFCGKEAAQEAVKLCDSYEIRPGKHLGVCISVANNRLFVGSIPKNKTKENILEEFSKVTEGLVDVILYHQPDDKKKNRGFCFLEYEDHKSAAQARRRLMSGKVKVWGNVVTVEWADPVEEPDPEVMAKVKVLFVRNLATTVTEEILEKSFSEFGKLERVKKLKDYAFVHFEDRGAAVKAMDEMNGKEIEGEEIEIVLAKPPDKKRKERQAARQASRSTAYEDYYYHPPPRMPPPIRGRGRGGGRGGYGYPPDYYGYEDYYDDYYGYDYHDYRGGYEDPYYGYDDGYAVRGRGGGRGGRGAPPPPRGRGAPPPRGRAGYSQRGAPLGPPRGSRGGRGGPAQQQRGRGSRGSRGNRGGNVGGKRKADGYNQPDSKRRQTNNQQNWGSQPIAQQPLQQGGDYSGNYGYNNDNQEFYQDTYGQQWK
B7: CLPB_HUMAN (protein, UniProt Q9H078 37-707, looked up)
Mitochondrial disaggregase: VTTGSLGEPQWLRVATGGRPGTSPALFSGRGAATGGRQGGRFDTKCLAAATWGRLPGPEETLPGQDSWNGVPSRAGLGMCALAAALVVHCYSKSPSNKDAALLEAARANNMQEVSRLLSEGADVNAKHRLGWTALMVAAINRNNSVVQVLLAAGADPNLGDDFSSVYKTAKEQGIHSLEDGGQDGASRHITNQWTSALEFRRWLGLPAGVLITREDDFNNRLNNRASFKGCTALHYAVLADDYRTVKELLDGGANPLQRNEMGHTPLDYAREGEVMKLLRTSEAKYQEKQRKREAEERRRFPLEQRLKEHIIGQESAIATVGAAIRRKENGWYDEEHPLVFLFLGSSGIGKTELAKQTAKYMHKDAKKGFIRLDMSEFQERHEVAKFIGSPPGYVGHEEGGQLTKKLKQCPNAVVLFDEVDKAHPDVLTIMLQLFDEGRLTDGKGKTIDCKDAIFIMTSNVASDEIAQHALQLRQEALEMSRNRIAENLGDVQISDKITISKNFKENVIRPILKAHFRRDEFLGRINEIVYFLPFCHSELIQLVNKELNFWAKRAKQRHNITLLWDREVADVLVDGYNVHYGARSIKHEVERRVVNQLAAAYEQDLLPGGCTLRITVEDSDKQLLKSPELPSPQAEKRLPKLRLEIIDKDSKTRRLDIRAPLHPEKVCNTI

Tested on: KDM4A-I71AzF
Experiment: CASI: photo-crosslinking with HEK293T cell extracts, StrepTactin enrichment and LC-MS/MS proteomics;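 also: lysates from HEK293T cells pretreated with a KDM4 inhibitor to raise proteome methylation, affinity-purified after ±UV, gel-resolved, trypsin-digested, with exclusive unique peptides per protein averaged per condition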
Format: binding, human
Conditions: sheet "Final results but with 0.01"

| Molecule | Fold change (+UV/-UV) |
| --- | --- |
| B1 | 1 |
| B2 | 0.75 |
| B3 | 4 |
| B4 | 2 |
| B5 | 1 |
| B6 | 2 |
| B7 | 2 |
